Reference: article PMC6641633 (ACS Omega, 2018)

Molecular target: the molecule itself
Assay: dynamic light scattering

Protein	stoichiometry N
truncated hepatitis B virus capsid protein Cp149, wild type (domain or fragment, UniProt P03146 1-149, looked up) MDIDPYKEFGATVELLSFLPSDFFPSVRDLLDTASALYREALESPEHCSPHHTALRQAILCWGELMTLATWVGVNLEDPASRDLVVSYVNTNMGLKFRQLLWFHISCLTFGRETVIEYLVSFGVWIRTPPAYRPPNAPILSTLPETTVV	2
Cp149-D2N/D4N mutant of the truncated hepatitis B virus capsid protein (domain or fragment, UniProt P03146 1-149, looked up) MNINPYKEFGATVELLSFLPSDFFPSVRDLLDTASALYREALESPEHCSPHHTALRQAILCWGELMTLATWVGVNLEDPASRDLVVSYVNTNMGLKFRQLLWFHISCLTFGRETVIEYLVSFGVWIRTPPAYRPPNAPILSTLPETTVV	2
